Measured values published in US20080311575A1, “Modulation of Muci-Dependent Anti-Estrogen Resistance” (priority 2005, published 2008).
One block for each molecule: values may come before it. Residues, ends and D or L forms follow the SMILES beside them. *: point of attachment. Cbz = O=C(OCc1ccccc1)*

Key:
[1] = system: breast cancer cells; test: Induction of apoptosis in breast cancer cells; assay type: cell-based, human; conditions: both cell types (MCF-7, ZR-75-1); data not shown
[2] = system: breast cancer; conditions: patients with high ER and PgR expression levels; cited from earlier work
[3] = system: ERα-mediated transcription (ERE-tk-Luc); test: ERE-tk-Luc reporter assay in MCF-7/CsiRNA and MCF-7/MUC1siRNA-A cells; assay type: cell-based, human; conditions: MCF-7/CsiRNA versus MCF-7/MUC1siRNA-A cells, 100 nM E2 for 24 h
[4] = system: ERα; test: Immunoblot of ERα levels in MCF-7 and ZR-75-1 cells; assay type: cell-based, human; conditions: MG132 5 mM for 24 h
Procedure: FIGS. 5A-D. MUC1 stabilizes ERα. FIG. 5A. Lysates from the indicated MCF-7 (left) and ZR-75-1 (right) cells were immunoblotted with anti-ERa, anti-MUC1-C and anti-β-actin. WT: wild-type cells. FIGS. 5B and C. The indicated MCF-7 (left) and ZR-75-1 (right) cells were treated with 5 mM MG132 for 24 h. Lysates were subjected to immunoblotting with the indicated antibodies FIG. 5B. […] Lysates were immunoprecipitated with anti-ERα and the precipitates were analyzed by SDS-PAGE and autoradiography. A higher amount of MCF-7/MUC1siRNA cell lysate was used for immunoprecipitation to increase the ERα signals. Lysates not subjected to immunoprecipitation were immunoblotted with anti-β-actin. Intensity of the signals as determined by densitometric scanning is presented as the percentage of ERα remaining over time relative to control at 0 h.
Coimmunoprecipitation and immunoblotting.

[5] = molecular target: T1, 35S-labeled ERα(Δ186-281) (Homo sapiens (Human), UniProt P03372 1-595, 35S-labeled in in vitro transcription/translation (TNT) reactions); test: GST pull-down on glutathione beads, 35S-labeled ERα deletion mutant, phosphoimaging
T1 construct: Internal deletion of residues 186-281, devoid of the DBD
T1 sequence: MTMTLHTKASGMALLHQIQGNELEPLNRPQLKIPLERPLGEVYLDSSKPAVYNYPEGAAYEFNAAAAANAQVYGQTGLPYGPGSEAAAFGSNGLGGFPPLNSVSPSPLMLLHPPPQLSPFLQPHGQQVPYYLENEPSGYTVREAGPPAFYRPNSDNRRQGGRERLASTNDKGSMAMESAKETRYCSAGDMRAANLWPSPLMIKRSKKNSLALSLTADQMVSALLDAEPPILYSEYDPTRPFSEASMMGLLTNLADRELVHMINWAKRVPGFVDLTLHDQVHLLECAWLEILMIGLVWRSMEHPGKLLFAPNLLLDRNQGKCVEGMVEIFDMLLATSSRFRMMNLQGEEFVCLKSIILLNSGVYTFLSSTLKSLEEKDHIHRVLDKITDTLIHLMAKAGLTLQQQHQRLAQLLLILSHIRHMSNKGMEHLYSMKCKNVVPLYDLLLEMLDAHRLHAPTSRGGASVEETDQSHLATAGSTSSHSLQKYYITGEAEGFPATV

[6] = molecular target: T2, 35S-labeled ERα(1-185) (Homo sapiens (Human), UniProt P03372 1-185, 35S-labeled in in vitro transcription/translation (TNT) reactions); test: as above
T2 construct: Deletion mutant that contains the AF1 domain
T2 sequence: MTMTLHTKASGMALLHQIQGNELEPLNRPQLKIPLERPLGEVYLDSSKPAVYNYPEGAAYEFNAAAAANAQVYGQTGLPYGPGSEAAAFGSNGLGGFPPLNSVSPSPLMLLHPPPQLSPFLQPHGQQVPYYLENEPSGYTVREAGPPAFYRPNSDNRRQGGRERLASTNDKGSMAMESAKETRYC

[7] = molecular target: T3, 35S-labeled ERα(282-595) (Homo sapiens (Human), UniProt P03372 282-595, 35S-labeled in in vitro transcription/translation (TNT) reactions); test: as above
T3 sequence: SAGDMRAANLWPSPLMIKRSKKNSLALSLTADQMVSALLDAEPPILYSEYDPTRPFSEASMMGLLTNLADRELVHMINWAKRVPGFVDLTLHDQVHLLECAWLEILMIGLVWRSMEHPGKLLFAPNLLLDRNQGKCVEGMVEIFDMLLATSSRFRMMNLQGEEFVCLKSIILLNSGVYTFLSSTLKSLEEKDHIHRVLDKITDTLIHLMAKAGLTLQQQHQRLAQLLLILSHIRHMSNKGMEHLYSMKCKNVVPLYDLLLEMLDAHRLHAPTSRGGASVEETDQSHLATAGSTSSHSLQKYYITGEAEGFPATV

[8] = molecular target: T4, estrogen receptor α (ERα), expressed in cells (human, UniProt P03372 1-595); test: cell-based or functional assay
T4 sequence: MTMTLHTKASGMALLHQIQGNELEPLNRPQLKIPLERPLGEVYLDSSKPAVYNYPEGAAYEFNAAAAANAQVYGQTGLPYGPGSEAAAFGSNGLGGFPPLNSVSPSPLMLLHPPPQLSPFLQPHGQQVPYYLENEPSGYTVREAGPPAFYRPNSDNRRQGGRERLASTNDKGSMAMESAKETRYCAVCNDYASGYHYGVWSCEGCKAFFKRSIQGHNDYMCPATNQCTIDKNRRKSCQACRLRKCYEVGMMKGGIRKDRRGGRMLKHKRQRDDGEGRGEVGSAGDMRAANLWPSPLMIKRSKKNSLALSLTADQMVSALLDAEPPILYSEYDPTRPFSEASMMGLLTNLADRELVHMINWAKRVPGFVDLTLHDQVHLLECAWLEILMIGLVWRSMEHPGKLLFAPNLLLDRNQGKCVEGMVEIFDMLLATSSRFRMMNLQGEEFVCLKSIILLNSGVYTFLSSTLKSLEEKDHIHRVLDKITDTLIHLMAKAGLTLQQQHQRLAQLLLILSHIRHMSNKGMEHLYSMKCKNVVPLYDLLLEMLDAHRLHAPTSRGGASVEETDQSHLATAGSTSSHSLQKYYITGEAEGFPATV

[9] = molecular target: T5, proliferating cell nuclear antigen (PCNA) (human, UniProt P12004 1-261); test: coimmunoprecipitation: anti-PCNA precipitates of cell lysates, immunoblot with anti-MUC1-C
T5 construct: Precipitated from lysates with anti-PCNA as a control

[10] = molecular target: T6, 35S-labeled full-length ERα(1-595) (Homo sapiens (Human), UniProt P03372 1-595, 35S-labeled in in vitro transcription/translation (TNT) reactions); test: GST pull-down on glutathione beads, 35S-labeled full-length ERα, phosphoimaging
T6 construct: In vitro translated from pcDNA3.1-ERα; also called 35S-labeled ERα
T6 sequence: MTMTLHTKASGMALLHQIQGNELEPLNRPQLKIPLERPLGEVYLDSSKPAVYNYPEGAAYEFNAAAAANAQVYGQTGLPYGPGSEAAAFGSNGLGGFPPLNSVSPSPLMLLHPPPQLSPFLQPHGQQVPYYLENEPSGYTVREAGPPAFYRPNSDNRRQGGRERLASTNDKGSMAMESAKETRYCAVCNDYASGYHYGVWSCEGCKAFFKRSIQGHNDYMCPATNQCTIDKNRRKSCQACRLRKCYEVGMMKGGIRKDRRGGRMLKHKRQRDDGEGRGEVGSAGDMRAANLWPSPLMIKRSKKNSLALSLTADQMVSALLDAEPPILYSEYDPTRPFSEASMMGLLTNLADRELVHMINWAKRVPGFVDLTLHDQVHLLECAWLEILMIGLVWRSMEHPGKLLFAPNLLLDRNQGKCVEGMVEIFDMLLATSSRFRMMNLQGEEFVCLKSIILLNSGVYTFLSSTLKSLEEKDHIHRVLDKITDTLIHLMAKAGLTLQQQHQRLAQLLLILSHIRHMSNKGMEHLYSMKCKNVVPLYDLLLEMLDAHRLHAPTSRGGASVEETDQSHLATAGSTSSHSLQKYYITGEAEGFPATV
Procedure: To localize the region within MUC1-CD that interacts with ERα, ³⁵S-labeled full length ERα was incubated with deletion mutants of MUC1-CD.

T5 sequence (P12004 whole entry): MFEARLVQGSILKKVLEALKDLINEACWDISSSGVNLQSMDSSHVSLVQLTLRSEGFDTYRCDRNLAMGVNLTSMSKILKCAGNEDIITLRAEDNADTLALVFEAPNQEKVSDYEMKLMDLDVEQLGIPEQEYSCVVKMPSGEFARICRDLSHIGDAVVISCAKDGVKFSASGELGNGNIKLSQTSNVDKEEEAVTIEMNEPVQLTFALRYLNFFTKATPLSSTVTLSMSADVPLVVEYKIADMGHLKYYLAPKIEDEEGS

Molecule: CC/C(=C(\c1ccccc1)c1ccc(OCCN(C)C)cc1)c1ccccc1 [TAM, tamoxifen]
induction of apoptosis [1]: ≤ 10% | overall response rate [2]: ≤ 70%

Molecule: C[C@]12CC[C@@H]3c4ccc(O)cc4CC[C@H]3[C@@H]1CC[C@@H]2O [E2, 17β-estradiol]
MUC1-dependent activation of ERE-tk-Luc [3]: ~5 fold

Molecule: C[C@]12CC[C@@H]3c4ccc(O)cc4C[C@@H](CCCCCCCCC[S+]([O-])CCCC(F)(F)C(F)(F)F)[C@H]3[C@@H]1CC[C@@H]2O (some centres unmarked) [ICI, ICI 182,780]
effect on ERα expression (immunoblot) [4]: down-regulation of ERα

Molecule: CC(C)C[C@@H](C=O)NC(=O)[C@H](CC(C)C)NC(=O)[C@H](CC(C)C)NC(=O)OCc1ccccc1 [MG132] (Cbz-Leu-Leu-Leu-aldehyde)
effect on ERα expression (immunoblot) [4]: increases in ERα expression

binding result [5]: no binding | binding result [6]: no binding | binding result [7]: no binding
B1: GST-MUC1-CD(1-72) (other, not shown: a dimerising Fc or GST)
chain: CQCRRKNYGQLDIFPARDTYHPMSEYPTYHTHGRYVPPSSTDRSPYEKVSAGNGGSSLSYTNPAVAATSANL
notes: also called full-length MUC1-CD

MUC1-dependent activation of ERE-tk-Luc (luciferase reporter, MCF-7/CsiRNA against MCF-7/MUC1siRNA-A cells stimulated with E2) [8]: ~5 fold | binding result [9]: no binding
B2: MUC1 C-terminal subunit (MUC1-C) (other)
chain: SVVVQLTLAFREGTINVHDVETQFNQYKTEAASRYNLTISDVSVSDVPFPFSAQSGAGVPGWGIALLVLVCVLVALAIVYLIALAVCQCRRKNYGQLDIFPARDTYHPMSEYPTYHTHGRYVPPSSTDRSPYEKVSAGNGGSSLSYTNPAVAATSANL
notes: Endogenous ~20-25 kDa MUC1-C in lysates of human breast cancer cells

binding result [10]: no binding
B3: GST-MUC1-CD with deletion of amino acids 9 to 46 (other, not shown: a dimerising Fc or GST; large carriers; small tags and cut ends)
chain: CQCRRKNYEKVSAGNGGSSLSYTNPAVAATSANL
notes: also called MUC1-CD deletion mutant (amino acids 9 to 46 deleted)
